Reference: patent publication US8241627B2, “Modified polypeptides stabilized in a desired conformation and methods for producing same” (The Center for Blood Research, Inc., priority 2000, dated 2012)

Experiments:
ICAM-1 = ICAM-1 (Homo sapiens, UniProt P05362); experiment: BIAcore binding of soluble αL I-domains to ICAM-1
Description: (§1) Briefly, recombinant mutant αL I-domain stabilized in the open conformation (K287C/K294C), or recombinant wild-type αL I-domain from amino acid residue G128 to Y307, were cloned into pET11b (Novagen) and expressed in E. coli induced with 1 mM IPTG for 4 hours. The recombinant proteins were purified from inclusion bodies by solubilization of inclusion bodies in 6M guanidine HCl and were refolded by dilution in the presence of 0.1 mM Cu^2+/phenanthrolin to enhance formation of disulfide bonds. Protein was concentrated by ammonium sulfate precipitation, dialyzed, and purified over a monoQ ion-exchange column. […] The recombinant proteins were then purified by gel filtration and concentrated by Centriprep. For BIAcore™ analysis, recombinant ICAM-1, ICAM-2 and ICAM-3 Fc chimeras were immobilized on the BIAcore™ sensor chip by an amine-coupling method. Recombinant αL I-domains were flowed in, and BIAcore™ assays were performed with Tris-buffered saline supplemented with 1 mM MgCl2 or 2 mM EDTA, at a flow rate of 10 μl/minute at 25° C.

ICAM-2 = target: T1, ICAM-2 (Homo sapiens, UniProt P13598); experiment: BIAcore binding of soluble αL I-domains to ICAM-2; conditions: 1:1 interaction model
T1 sequence (P13598 25-223 limits assumed): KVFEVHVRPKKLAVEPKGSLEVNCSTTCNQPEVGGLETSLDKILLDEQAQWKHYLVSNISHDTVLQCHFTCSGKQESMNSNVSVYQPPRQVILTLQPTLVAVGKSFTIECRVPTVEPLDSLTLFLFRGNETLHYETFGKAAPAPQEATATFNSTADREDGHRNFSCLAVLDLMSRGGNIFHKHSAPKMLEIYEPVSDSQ
Description: as §1

[1] = tested on: K562 cells stably expressing wild-type LFA-1; experiment: Inhibition by soluble I-domains of adhesion of LFA-1 expressing K562 cells to immobilized ICAM-1; format: cell-based, human; conditions: LFA-1 activated by CBRLFA-1/2; 40 minutes at 37° C.
Description: The activity of the soluble open I-domain to inhibit LFA-1I-dependent adhesion was tested. In one study, K562 cells stably expressing wild-type LFA-1 were fluorescently labeled by BCECF and LFA-1 on the cell surface was activated by the activating monoclonal antibody, CBRLFA-1/2 in L15 media supplemented with FCS. The cells were subsequently incubated in ICAM-1 coated 96-well plastic plates in the presence or absence of 1-domains. After incubation for 40 minutes at 37° C., unbound cells were washed off on a Microplate Autowasher. The fluorescence content of total input cells and the bound cells in each well was quantitated on a Fluorescent Concentration Analyzer. The bound cells were expressed as a percentage of total input cells per sample well.

[2] = tested on: T-lymphocytes in peripheral lymph node high endothelial venules; experiment: Intravital microscopy of lymphocyte behaviour in peripheral lymph node high endothelial venules; format: in vivo; conditions: mouse
Description: Moreover, the ability of the open I-domain mutants to inhibit LFA-1 function in vivo was tested by visualizing microcirculation in the peripheral lymph node (LN) with intravital microscopy. Briefly, a small bolus (20-50 µl) of LN cell suspensions from […] mice were retrogradely injected through a femoral artery catheter and visualized in the subiliac LN by fluorescent epi-illumination from a video-triggered xenon arc stroboscope. After recording control […] cell behavior in the absence of 1-domain, the mouse was pretreated by intra-arterial injection of 1-domain (10 µg/g of weight) 5 minutes before T^GFP cell injection. All scenes were recorded on videotape and off-line analysis was done. The rolling fraction was calculated as percentage of rolling cells amount the total number of TGFβ cells that entered a venule. The sticking (firm adhesion) fraction was determined as the percentage of T^GFP cells becoming firmly adherent for >20 seconds in the number of T^GFP cells that rolled in a venule. Results were semi-quantitatively scored as follows: −: 0%, .+−.: 0-5%, +: 5-20%, ++: 20-40%, +++: 40-60%, ++++: 60-80%, +++++:80-100%.

murine ICAM-1 = murine ICAM-1 (Mus musculus, UniProt P13597); experiment: Affinity of open I-domain for murine ICAM-1; format: binding
Description: as §1
To analyze binding kinetics, different concentrations of open I-domain were tested for ligand binding (FIG. 9, Panels B, D and F).

[3] = tested on: murine T lymphoma cell line EL-4; experiment: PMA-induced LFA-1-dependent homotypic aggregation of EL-4 cells; format: cell-based; conditions: 50 ng/ml PMA, 2 hours at 37° C.
Description: Cells were incubated in a 96 well plate in the presence of 50 ng/ml PMA and varying amounts of soluble I-domains.

[4] = BIAcore, 1:1 interaction model, 1 mM MgCl2, 25° C.

Chain of ICAM-1 (P05362 28-480 limits assumed): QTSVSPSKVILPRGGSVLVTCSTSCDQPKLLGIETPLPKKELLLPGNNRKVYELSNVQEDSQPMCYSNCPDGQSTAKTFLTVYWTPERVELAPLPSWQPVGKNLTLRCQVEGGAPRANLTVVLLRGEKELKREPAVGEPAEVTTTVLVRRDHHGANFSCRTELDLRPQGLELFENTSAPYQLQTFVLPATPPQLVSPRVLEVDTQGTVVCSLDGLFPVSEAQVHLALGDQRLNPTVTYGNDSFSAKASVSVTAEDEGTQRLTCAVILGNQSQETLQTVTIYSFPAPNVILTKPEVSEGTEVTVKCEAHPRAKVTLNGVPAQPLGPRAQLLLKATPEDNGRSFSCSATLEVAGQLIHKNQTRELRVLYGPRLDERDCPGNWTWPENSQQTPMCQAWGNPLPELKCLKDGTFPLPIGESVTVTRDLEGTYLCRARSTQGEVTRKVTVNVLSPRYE
Chain of murine ICAM-1 (P13597 28-537): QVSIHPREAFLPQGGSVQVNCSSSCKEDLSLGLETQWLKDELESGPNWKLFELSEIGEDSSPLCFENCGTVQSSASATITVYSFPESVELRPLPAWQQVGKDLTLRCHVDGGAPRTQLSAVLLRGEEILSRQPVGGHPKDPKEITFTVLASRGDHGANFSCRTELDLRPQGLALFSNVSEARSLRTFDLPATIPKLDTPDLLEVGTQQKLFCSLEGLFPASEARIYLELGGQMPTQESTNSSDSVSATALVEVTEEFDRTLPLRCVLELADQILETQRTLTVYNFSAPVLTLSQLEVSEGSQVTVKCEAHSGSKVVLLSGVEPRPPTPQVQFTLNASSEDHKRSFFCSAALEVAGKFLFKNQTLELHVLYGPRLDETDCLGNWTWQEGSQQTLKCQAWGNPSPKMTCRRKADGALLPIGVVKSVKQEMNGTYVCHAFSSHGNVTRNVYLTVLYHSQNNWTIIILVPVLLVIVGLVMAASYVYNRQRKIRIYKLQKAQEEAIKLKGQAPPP

interaction of I-domain with ligands in the presence of EDTA (ICAM-1; 2 mM EDTA, ligands ICAM-1, -2, -3): abolished
Koff, open I-domain binding to ICAM-1 (ICAM-1; [4]): 0.0230 s⁻¹
Kon, open I-domain binding to ICAM-1 (ICAM-1; [4]): 128000 M⁻¹ s⁻¹
Kon, interaction of αL I-domains with ICAM-1 (ICAM-1; calculated by Koff/KD): 128000 M⁻¹ s⁻¹
Koff, interaction of αL I-domains with ICAM-1 (ICAM-1; curve fitting of dissociation phase, 1:1 binding model): 0.0230 s⁻¹
Koff, open I-domain binding to ICAM-2 (ICAM-2): 0.0118 s⁻¹
Kon, open I-domain binding to ICAM-2 (ICAM-2): 23000 M⁻¹ s⁻¹
affinity for murine ICAM-1 (murine ICAM-1): nanomolar range
B1: K287C/K294C: human αL (LFA-1) I-domain with K287 and K294 replaced by cysteines; high affinity locked open; tested in intact LFA-1, cell-surface and soluble forms (protein)
chain: GNVDLVFLFDGSMSLQPDEFQKILDFMKDVMKKLSNTSYQFAAVQFSTSYKTEFDFSDYVKRKDPDALLKHVKHMLLLTNTFGAINYVATEVFREELGARPDATKVLIIITDGEATDSGNIDAAKDIIRYIIGIGKHFQTKESQETLHKFASKPASEFVCILDTFECLKDLFTELQKKIY
notes: human αL (LFA-1) I-domain with K287 and K294 replaced by cysteines; tested in intact LFA-1, cell-surface and soluble forms
inhibition of adhesion of LFA-1 expressing cells to immobilized ICAM-1 [1]: strongly inhibited
firm adhesion of T-lymphocytes to high endothelial venules ([2]; injection of I-domain): effectively blocked
lymphocyte rolling mediated by L-selectin and PNAd ([2]; injection of I-domain): not compromised
Fraction transmigration ([2]; intra-arterial I-domain 10 μg/g): − (−: 0%)
Fraction Rolling ([2]; intra-arterial I-domain 10 μg/g 5 minutes before T-GFP cell injection): ++++ (++++: 60-80%)
Fraction firm adhesion ([2]; intra-arterial I-domain 10 μg/g, adherent >20 seconds): ± (.+−.: 0-5%)
inhibition of PMA-induced LFA-1 dependent homotypic aggregation [3]: inhibited
